In PMC7337384 (bioRxiv, 2020):

Molecular target: T1, MERS-CoV receptor-binding domain fused to the Fc domain of human IgG1 (MERS-CoV, UniProt K9N5Q8 381-587)
T1 sequence: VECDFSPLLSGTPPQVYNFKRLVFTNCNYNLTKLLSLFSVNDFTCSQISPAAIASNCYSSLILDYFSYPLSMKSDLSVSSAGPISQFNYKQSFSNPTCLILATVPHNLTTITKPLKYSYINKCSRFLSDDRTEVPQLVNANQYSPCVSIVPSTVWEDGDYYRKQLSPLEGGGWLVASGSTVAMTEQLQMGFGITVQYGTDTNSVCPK
Test: SPR

B1: soluble monomeric human ACE2-NN (enzymatically inactive human ACE2 lacking its active-site histidines) (domain or fragment)
chain: QSTIEEQAKTFLDKFNHEAEDLFYQSSLASWNYNTNITEENVQNMNNAGDKWSAFLKEQSTLAQMYPLQEIQNLTVKLQLQALQQNGSSVLSEDKSKRLNTILNTMSTIYSTGKVCNPDNPQECLLLEPGLNEIMANSLDYNERLWAWESWRSEVGKQLRPLYEEYVVLKNEMARANHYEDYGDYWRGDYEVNGVDGYDYSRGQLIEDVEHTFEEIKPLYEHLHAYVRAKLMNAYPSYISPIGCLPAHLLGDMWGRFWTNLYSLTVPFGQKPNIDVTDAMVDQAWDAQRIFKEAEKFFVSVGLPNMTQGFWENSMLTDPGNVQKAVCHPTAWDLGKGDFRILMCTKVTMDDFLTAHNEMGNIQYDMAYAAQPFLLRNGANEGFHEAVGEIMSLSAATPKHLKSIGLLSPDFQEDNETEINFLLKQALTIVGTLPFTYMLEKWRWMVFKGEIPKDQWMKKWWEMKREIVGVVEPVPHDETYCDPASLFHVSNDYSFIRYYTRTLYQFQFQEALCQAAKHEGPLHKCDISNSTEAGQKLFNMLRLGKSEPWTLALENVVGAKNMNVRPLLNYFEPLFTWLKDQNKNSFVGWSTDWSPYEPEA
Q: With B1 as the binder, how does the Kd read?
A: > 35 µM
